This is an account of results in US5889152A, “Porphenins--antibiotic peptides” (Regents of the University of California, priority 1995, dated 1999).

The subject of one assay is E. coli ML-35. Put plainly: Radial diffusion assay in agarose gels, E. coli. Type of assay: cell-based. As to conditions: for inhibitory activity (FIG. 4a): E. coli ML-35, clear zone units. Here is the method: (§1) Aliquots (66 μl) of each fraction were dried by vacuum centrifugation, and resuspended in approximately 6.6 μl of 0.01% acetic acid. […] samples of this concentrate were tested for antimicrobial activity against E. coli ML-35, L. monocytogenes, Strain EGD and C. albicans, strain 820 by radial diffusion and gel overlay techniques (Lehrer, R. I. et al. J Immunol Meth (1991) 137:167-173). Active fractions were further examined by acid-urea PAGE and SDS-PAGE. Prophenins emerged from the P10 column in fractions 38-43 (39.6 ml total volume), which contained a total of 18 mg protein by BCA analysis.
(§2) The radial diffusion assay in agarose gels as described above was also used to test the activity of the purified prophenins. Samples of 5 μL each were added to 3 mm wells in thin gels composed of 10 mM sodium phosphate, 30 mg/ml trypticase soy broth powder in 1% agarose and containing approximately 4×10^5 CFU/ml of mid-log phase organisms. After allowing 3 hours for the samples to diffuse into the underlayer gel, a nutrient-rich overlay gel was poured and the plates were incubated for 24 hours at 37° C. to allow surviving organisms to form microcolonies. The diameters of the clear zones were measured and expressed in "units" (10 units=1 mm) as described previously.

A further assay has as its system C. albicans, strain 820. Put plainly: Radial diffusion assay in agarose gels, C. albicans. The following applies: clear zone units. It counts as cell-based, Candida albicans. Here is the method:
as §1, §2

For assay [1], the system named is lipid polysaccharide (LPS) of the Gram-negative bacterium E. coli strain 0.55B5. Description: Limulus amebocyte lysate (LAL) test for endotoxin binding. It counts as biochemical. The following applies: for concentration giving complete inhibition of gelation / concentration giving complete inhibition of gelation, molar: LAL test; for LAL gel formation: peptide 0.63 μg/ml (.625 in Table 4), LPS 0.05 endotoxin unit/ml. Here is the method: The prophenins of the invention were tested for their ability to bind the lipid polysaccharide (LPS) of the Gram-negative bacterium E. coli strain 0.55B5. The assay was the Limulus amebocyte lysate (LAL) test for endotoxins conducted in the presence and absence of the test compounds. The test was conducted using the procedure described in Sigma Technical Bulletin No. 210 as revised in December 1992 and published by Sigma Chemical Company, St. Louis, Mo.
The LAL test is based on the ability of LPS to effect gelation in the commercial reagent E-TOXATE™ which is prepared from the lysate of circulating amebocytes of the Horseshoe Crab Limulus polyphemus. As described in the technical bulletin, when exposed to minute quantities of LPS, the lysate increases in opacity as well as viscosity and may gel or clot depending on the concentration of endotoxin. The technical bulletin goes on to speculate that the mechanism appears analogous to the clotting of mammalian blood and involves the steps of activation of a trypsin-like preclotting enzymes by the LPS in the presence of calcium ion, followed by enzymic modifications of a "coagulogen" by proteolysis to produce a clottable protein. These steps are believed tied to the biologically active or "pyrogenic" portion of the molecule. It has been shown previously that detoxified LPS (or endotoxin) gives a negative LAL test.
Polymyxin B is a cyclic 1.2 kD acylated […] obtained from Bacillus polymyxa. Polymyxin B was used as a positive control since it is known to inhibit LPS-induced Limulus hemocyte lysate clotting.
In the assay, the amounts of prophenin-1 and polymyxin B (78% free polymyxin, Sigma) were preincubated in a final volume of 0.2 ml and the test mixtures contained LPS at a final concentration of 0.05 endotoxin unit/ml and E-TOXATE™ at the same concentration. The test compounds were incubated together with the LPS for 15 minutes before the E-TOXATE™ was added to a final volume (after E-TOXATE™ addition) of 0.2 ml. The tubes were then incubated for 60 minutes at 37° C. and examined for the formation of a gel.
The ability of fragments of prophenin-1 to bind LPS was also assayed. Prophenin-1 was digested with TLCK treated trypsin as described above, thus cleaving the protein C-terminal to the initial 4 arginines. The fragments were purified by RP-HPLC, and their identities were verified by ESI-MS and amino acid composition analysis. The three fragments were those obtained as described in Example 1 and are as follows: […]

Assay [2] has as its system L. monocytogenes, Strain EGD. Put plainly: Radial diffusion assay in agarose gels, L. monocytogenes. Type of assay: cell-based, Listeria monocytogenes. Here is the method: as §1, §2

Where no end group is shown, it is not given here.

“PG-3: protegrin-3 (PG3), control (RGGGLCYCRRRFCVCVGR; ends and bridges not checked; cysteine pairing not given here; UniProt P32196 131-148, looked up) [reference compound]”: in the assay on E. coli ML-35, the “inhibitory activity (FIG. 4a)” value is “more inhibitory than HNP-1”. For the same molecule, the “inhibitory activity (FIG. 4c)” value in the assay with C. albicans, strain 820 was “successful antifungals”.

On to HNP-1: human defensin (HNP-1), control, for which the “inhibitory activity (FIG. 4c)” value with C. albicans, strain 820 is on record as “substantially noninhibitory”.

On to Polymyxin B [reference compound], for which, in assay [1], the “concentration giving complete inhibition of gelation” value is 5 µg/mL; the “concentration giving complete inhibition of gelation, molar” value is given as “≈ 4.2 μM”; the LAL gel formation entry is on record as “++”.

B1: Prophenin-1: 79-residue proline-rich antimicrobial peptide purified from porcine leukocytes, mass 8,683, SEQ ID NO:1 (protein)
chain: AFPPPNVPGPRFPPPNFPGPRFPPPNFPGPRFPPPNFPGPRFPPPNFPGPPFPPPIFPGPWFPPPPPFRPPPFGPPRFP
Regarding B1, in the assay on E. coli ML-35, the “inhibitory activity (FIG. 4a)” value is “comparable in inhibitory activity to PG3 and NP1”. For the same molecule, the “specificity for Gram-negative bacteria” value in the assay on E. coli ML-35 (compared over E. coli, L. monocytogenes, C. albicans) was “highly specific for Gram-negative bacteria”. For the same molecule, in assay [2] (FIG. 4b), the “concentrations at which some activity was shown” value was “above 100 μg/ml”. Moreover, the “inhibitory activity (FIG. 4b)” value in assay [2] (clear zone units) is reported as “substantially less inhibitory”. For the same molecule, the “inhibitory activity (FIG. 4c)” value in the assay with C. albicans, strain 820 is recorded as “substantially noninhibitory”. In assay [1], the “LPS binding / inactivation in words” value is given as “more effective than the additive value of the subunits”; the “concentration giving complete inhibition of gelation” value was 0.625 µg/mL; the “concentration giving complete inhibition of gelation, molar” value is “≈ 72 nM”; the LAL gel formation came to 0. Further, in assay [1] (4.2/0.072), the “potency in binding LPS relative to polymyxin B sulfate, molar basis” value is given as “approximately 60 fold”.
